Source: patent publication US20150037348A1 (AbbVie / Abbott, published 2015)
Several values for one entry are separate records, joined by “and”; a condition that tells them apart may be missing. Identical values can stand only once. Each block holds one binder with its values, some of them ahead of it.

Columns and labels:
[1] = target: T1, recombinant human IL-12 (rhIL-12) (human, UniProt P29459 23-219; P29460 23-328); experiment: receptor binding assay, 125I-hIL-12 on PHA blasts
T1 construct: disulfide-linked p35/p40 heterodimer (p70); also called IL-12 p70; rec. human IL12
T1 sequence (looked up) 1: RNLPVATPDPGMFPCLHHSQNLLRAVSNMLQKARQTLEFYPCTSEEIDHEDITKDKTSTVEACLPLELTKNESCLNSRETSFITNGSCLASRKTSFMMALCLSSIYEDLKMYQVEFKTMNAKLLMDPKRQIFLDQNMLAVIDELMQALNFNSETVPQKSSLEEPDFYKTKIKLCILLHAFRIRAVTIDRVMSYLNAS
T1 sequence (looked up) 2: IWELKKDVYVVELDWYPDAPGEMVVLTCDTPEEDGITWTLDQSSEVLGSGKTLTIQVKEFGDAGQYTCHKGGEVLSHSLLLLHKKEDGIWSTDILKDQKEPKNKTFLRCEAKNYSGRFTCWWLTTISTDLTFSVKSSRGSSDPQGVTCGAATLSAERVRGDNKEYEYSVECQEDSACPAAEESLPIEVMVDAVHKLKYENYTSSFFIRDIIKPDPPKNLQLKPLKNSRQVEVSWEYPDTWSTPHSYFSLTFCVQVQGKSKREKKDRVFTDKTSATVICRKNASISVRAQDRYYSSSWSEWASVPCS
Protocol: PHA blast cells isolated as described above, were washed once and resuspended in binding buffer to a cell density of 2×10⁷ cells/ml. […] The cell pellet was examined for cell bound radioactivity using a gamma counter. […] Incubations were carried out in duplicate.

recombinant murine IL-12 = target: T2, recombinant murine IL-12 (mouse, UniProt P43431 23-215; P43432 23-335); experiment: BIAcore, COS J695 captured via goat anti-human IgG, cytokine in solution
T2 construct: rmIL12 of R&D Systems, Cat. No. 419-ML, in the BIAcore test; also called mouse IL-12; rmIL12
T2 sequence (looked up) 1: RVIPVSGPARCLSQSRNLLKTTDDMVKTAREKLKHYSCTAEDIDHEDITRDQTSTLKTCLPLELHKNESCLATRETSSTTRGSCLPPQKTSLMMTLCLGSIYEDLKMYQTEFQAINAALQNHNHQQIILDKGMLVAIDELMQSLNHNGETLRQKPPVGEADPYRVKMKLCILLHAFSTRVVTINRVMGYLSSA
T2 sequence (looked up) 2: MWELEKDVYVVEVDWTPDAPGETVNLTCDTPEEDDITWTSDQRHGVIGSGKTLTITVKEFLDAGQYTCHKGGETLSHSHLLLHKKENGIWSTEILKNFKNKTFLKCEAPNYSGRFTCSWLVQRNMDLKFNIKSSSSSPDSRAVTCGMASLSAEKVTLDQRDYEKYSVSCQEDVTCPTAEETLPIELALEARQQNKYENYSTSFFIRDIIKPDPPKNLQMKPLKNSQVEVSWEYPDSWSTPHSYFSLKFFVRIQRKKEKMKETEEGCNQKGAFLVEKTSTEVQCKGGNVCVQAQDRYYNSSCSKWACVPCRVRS
Protocol: Before injection of the protein and immediately afterward, HBS buffer alone flowed through each flow cell. […] Cytokines were diluted in HBS running buffer and 50 μl aliquots were injected through the immobilized protein matrices at a flow rate of 5 μl/min. […] The net difference in baseline signal and signal after completion of cytokine injection was taken to represent the binding value of the particular sample. Biosensor matrices were regenerated using 100 mM HCl before injection of the next sample. To determine the dissociation constant (off-rate), association constant (on-rate), BIAcore kinetic evaluation software (version 2.1) was used.

[2] = target: T1, recombinant human IL-12 (rhIL-12); experiment: cell-based or functional assay
[3] = target: T1, recombinant human IL-12 (rhIL-12); experiment: cell-based or functional assay; remark: listed apart in the source
murine IL-12 = target: T3, murine IL-12 (mouse, UniProt P43431 23-215; P43432 23-335); experiment: neutralization bioassay with non-human IL-12 (murine 2D6 cell proliferation)
T3 construct: Purified or recombinant murine IL-12 (R&D Systems, Cat. No. 419-ML in the BIAcore test); also called mouse IL-12; rmIL12
T3 sequence (looked up) 1: T2 sequence (looked up) 1
T3 sequence (looked up) 2: T2 sequence (looked up) 2
Protocol: 2D6 cells were washed once and resuspended in RPMI complete medium containinγβME to a cell density of 1×10⁵ cells/ml. […] The culture contents were harvested and counted by liquid scintillation counting. All samples were assayed in duplicate.

IC50 [1]: 0.05 nM | binding result (recombinant murine IL-12): no binding | IFN-γ Assay IC50 [2]: 5.8 pM and 4.3 pM | PHA blast Assay IC50 [2]: 5.5 pM and 4.4 pM | PHA blast IC50 [3]: 5.8 pM
B1: J695 (antibody, human IgG1, V domains shown)
VH: QVQLVESGGGVVQPGRSLRLSCAASGFTFSSYGMHWVRQAPGKGLEWVAFIRYDGSNKYYADSVKGRFTISRDNSKNTLYLQMNSLRAEDTAVYYCKTHGSHDNWGQGTMVTVSS
VL: QSVLTQPPSVSGAPGQRVTISCSGSRSNIGSNTVKWYQQLPGTAPKLLIYYNDQRPSGVPDRFSGSKSGTSASLAITGLQAEDEADYYCQSYDRYTHPALLFGTGTKVTVLG
notes: human IgG1 with lambda light chain

B2: J695 (antibody, V domains shown)
VH: B1 VH
VL: B1 VL
notes: Human IgG1 with lambda light chain (detected with anti-human lambda); Made in CHO or COS cells
binding result (murine IL-12): no binding
